Experimental data taken from paper PMC4180972.

Target: Flag-TIN2 (human) (UniProt Q9BSI4)
Test: co-IP

Sequence of UniProt Q9BSI4 (Q9BSI4 whole entry): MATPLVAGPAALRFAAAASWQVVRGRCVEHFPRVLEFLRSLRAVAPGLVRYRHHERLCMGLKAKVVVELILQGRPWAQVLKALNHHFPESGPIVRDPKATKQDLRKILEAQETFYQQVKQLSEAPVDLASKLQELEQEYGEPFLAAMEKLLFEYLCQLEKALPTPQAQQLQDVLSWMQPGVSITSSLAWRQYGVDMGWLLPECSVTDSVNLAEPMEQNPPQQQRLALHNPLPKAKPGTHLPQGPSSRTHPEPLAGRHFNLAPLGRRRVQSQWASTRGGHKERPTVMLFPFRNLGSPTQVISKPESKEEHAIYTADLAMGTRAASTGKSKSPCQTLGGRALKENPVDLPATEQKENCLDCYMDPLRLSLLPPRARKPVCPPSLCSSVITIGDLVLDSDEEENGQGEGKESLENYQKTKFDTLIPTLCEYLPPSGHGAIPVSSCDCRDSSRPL

- fold reduction in TIN2 association against wild-type TPP1: 2 fold
Substance: Flag-tagged TPP1-P491T (from UniProt Q96AP0-3 1-458) (natural protein)
